# Test results from US20220363623A1, “IMAGING AND THERAPEUTIC COMPOSITIONS” (priority 2019, published 2022).
# *1 amine or outer side, *2 acyl side, *3 side chain or, on linkers, in order; H or OH if unused. Where a SMILES comes first, the peptide text is derived from it. Bridges are numbered along the chain shown (N, C = ends). Side-chain parts run from the residue outwards. [ ]: non-standard residue; d: D form. The star is where a group is joined. X1 = O=C([C@@H](Cc1ccccc1)N(c1c(NCCCCCN(O)[*:3])c(=O)c1=O)[*:1])[*:2]; X2 = CC(=O)N(O)CCCCCNC(=O)CCC(=O)N(O)CCCCCN*; Thr(ol) = C[C@@H](O)[C@H](N)CO; Suc = O=C(CCC(=O)[*:2])[*:1]
# How the values were obtained:
# [1] = test system: LNCaP (human PSMA expressing prostate cancer cell line) tumour; design: species or system mice; details: mouse, in vivo
# Method: (§1) PET-CT imaging and Biodistribution. Male Balb/c nude mice (age 8.5 weeks) or Male NSG mice (age 12 weeks) were inoculated subcutaneously on the right flank with 6×10^6 LNCap cells in PBS:Matrigel (1:1). Mice were weighed and tumours measured twice weekly using electronic callipers. Tumour volume (mm^3) was calculated as length×width×height×π/6. Mice were assigned for imaging and biodistribution studies (tumour volumes: 85-450 mm3). ^89Zr-DFOSq-PSMA tracers were then administered intravenously by tail vein injection to 6 mice. At 1, 2, 4 and 18 hr post injection three mice were anaesthetised using isoflurane and placed on the imaging bed of a G8 PET/CT scanner (Perkin Elmer). A CT scan was performed and followed immediately by a 10 min static PET scan. PET images were reconstructed using the maximal likelihood and expectation maximization (ML-EM) algorithm. PET Images were analysed using VivoQuant (Invicro) and Tumour SUVmax or Tumour SUVmax/background average (TBR) determined. After imaging at 18 hr mice were euthanised and selected tissues were excised, weighed and counted using a Capintec (Captus 4000e) gamma counter. A separate cohort of 3 mice was harvested at 1 hr post injection for biodistribution analysis as above. The data was analysed using GraphPad Prism 7 and differences between tracers analysed using a t-test.
# (§2) ^89Zr Labelled tracers: The ^89Zr radiolabelled PSMA tracers were injected intravenously via tail vein to LNCaP (human PSMA expressing prostate cancer cell line) tumour bearing mice. At 1, 2, 4 and 18 h post-injection the mice were anaesthetised with isoflurane and imaged over 10 min. The representative PET images of mice injected with ^89Zr radiolabelled PSMA tracers at 1 and 18 hr are shown in FIG. 1 and quantitation of the Tumour SUVmax for each tracer is shown in FIG. 2a. […] There was a trend for higher tumour SUVmax for (4) tracer compared to all other tracers at all time points. […] A comparison of tumour uptake values is shown in FIG. 2b and the tissue biodistribution data for the tracers at 1 and 18 hr is summarised in FIG. 3.
# (§3) ^68Ga Labelled tracers: Representative PET images of mice injected with ^68Ga(1) and ^68Ga(4) are shown in FIG. 4 and quantitation of the tumour SUVmax is shown in FIG. 5a. […] Tumour uptake of ^68Ga(4) was 1.6 and 1.8 fold higher than ^68Ga(1) at 1 and 2 hr p.i., respectively. This is consistent with the biodistribution results where tumour % ID/g for ^68Ga(4) was higher than ^68Ga(1) at 1 hr (10.8±1.3 vs 6.5±0.4) and at 2.5 hr (8.6±1.0 vs 4.1±0.5) p.i. […] (6.5±0.4% ID/g at 1 hr vs 4.1±0.5% ID/g at 2.5 hr). In contrast, there was no significant change in ^68Ga(4) tumour retention at 1 and 2.5 p.i. (10.8±1.3% ID/g vs […], FIG. 5b).
# [2] = test system: LNCaP (human PSMA expressing prostate cancer cell line) tumour; assay: in vivo; design: species or system mice; details: mouse
# Method: as §1, §2, §3
# [3] = test system: LNCap cells; assay: Cell binding and internalization studies in LNCap cells; assay type: cell-based, human; details: 89Zr tracers, 60 min, 37° C.
# Method: Cell binding and internalization studies. LNCap cells (150,000/well) were plated in RPMI 1640 medium containing 10% FBS into wells of a 24 well plate pre-coated with 0.05% poly-L-lysine and incubated overnight at 37° C. and 5% CO2. The following day cells were washed twice with PBS and incubated for 1 hour at 37° C. in 1 mL per well internalisation buffer (MEM, 1% FBS). The buffer was then replaced with 1 ml per well of a warmed solution containing 0.5 μCi ^89Zr-DFOsq-PSMA tracers in internalisation buffer. Cells were incubated in triplicate for 5, 15, 30 or 60 min at 37° C. and 5% CO2. At each time point, cells were washed twice with ice-cold PBS and the washes collected for counting (unbound fraction). Cells were then incubated twice for 10 min in saline containing 10 μM PMPA and each wash collected for counting (surface bound fraction). The cells were then solubilised in 1 M NaOH (internalised fraction). Total protein content was determined in this fraction using a BCA protein assay kit (Pierce). A Perkin Elmer 2480 Wizard automatic gamma counter was then used to measure Zr-89 radioactivity in unbound, surface bound and internalised fractions. Surface bound and internalised fractions were expressed as percentage of total added radioactivity per mg of protein. Non-specific membrane binding and internalisation was determined by incubating cells with the ^89Zr-DFOSq-PSMA tracers in the presence of excess (10 μM) PMPA. ^89Zr-DFOSq-PSMA tracers uptake at 60 min was also determined in DU145 cells (seeded at 125,000 cells/well), a PSMA negative cell line. The raw data was analysed using GraphPad Prism 7.
# [4] = test system: AR42J (rat pancreatic cancer cell line) tumour; assay: in vivo; design: species or system mice; details: mouse
# Method: (§4) PET-CT imaging and Biodistribution of Octreotate/tide Tracers. Female Balb/c nude mice (age 9 weeks) were inoculated subcutaneously on the right flank with 3×10^6 AR42J cells in PBS:Matrigel (1:1). Mice were weighed and tumours measured twice weekly using electronic callipers. Tumour volume (mm^3) was calculated as length^2×width/2. 12 mice were assigned for imaging and biodistribution studies (tumour volumes: 170-550 mm^3). DFOSqTIDE (2.5 MBq) and DFOSqTATE (2.2 MBq) were administered intravenously by tail vein injection to mice on. At 1, 2, 4 and 18 hr post injection three mice were anaesthetised using isoflurane and placed on the imaging bed of a G8 PET/CT scanner (Perkin Elmer). A CT scan was performed which was immediately followed by a 10 min static PET scan. PET images were reconstructed using the maximal likelihood and expectation maximization (ML-EM) algorithm. PET images were analysed using VivoQuant (Invicro) and Tumour SUVmax, Tumour SUVmax/background average (TBR) and Tumour SUVmax/liver average (TLR) determined. After imaging at 18 hr mice were euthanised and selected tissues were excised, weighed and counted using a Capintec (Captus 4000e) gamma counter. A separate cohort of 3 mice was harvested at 1 hr post injection for biodistribution analysis. The data was analysed using GraphPad Prism 7 and differences between tracers analysed using a t-test.
# AR42J (rat pancreatic cancer cell line) tumour bearing Balb/c nude mice as described above were injected intravenously via tail vein injection with ^89ZrDFOSqTATE or ^89ZrDFOSqTIDE (2-3 MBq). At 1, 2, 4 and 18 h post-injection the mice were anaesthetised with isoflurane and imaged over 10 min. At 1 hr after injection of DFOSqTIDE and DFOSqTATE, uptake into kidney, tumour and liver was observed. Representative PET images of mice injected with DFOSqTIDE and DFOSqTATE are shown in FIG. 12 and quantitation of the tumour SUVmax for each radiotracer is summarised in FIG. 13a.
# ^68GaDFOSq-TIDE and ^68GaDFOSq-TATE tracers were injected (2-3 MBq, 1 μg, 0.5 nmol) intravenously via tail vein to AR42J (rat pancreatic cancer cell line) tumour bearing Balb/c nude mice. PET images were acquired at 1 and 2 h post-injection (FIGS. 15a and b). […] Quantification of the uptake in the images using Standard Uptake Value (SUVmax=radioactivity in a tissue/injected activity/BW) confirms the higher uptake for ^68GaDFOSq-TATE (1 h; SUVmax 1.8±0.2, compared to 1.21±0.20, FIG. 15c). The higher tumor uptake of ^68GaDFOSqTATE was also associated with a higher degree of tumor retention at 2 h post injection with only a 5% reduction in SUVmax whereas the tumor SUVmax for ^68GaDFOSqTIDE reduced by 30% ^68GaDFOSqTATE at 2 h post injection. Both tracers clear rapidly from the blood and there is low uptake in bone consistent with stable gallium-68 complexes as well as low uptake in muscle. Both tracers have significant uptake in the kidneys and bladder.
# [5] = test system: AR42J (rat pancreatic cancer cell line) tumour; assay: in vivo; design: species or system mice; details: female, Balb/c nude, mouse, iv
# Method: as §4, with “t-test. The high tumor uptake was confirmed by an ex vivo biodistribution study in the same mouse model where mice were injected with either ^68GaDFOSq-TIDE and ^68GaDFOSq-TATE (2-3 MBq, 1 μg, 0.5 nmol) and then euthanised at either 1 h or 2 h after administration. The amount of injected activity per gram of tissue (% IA/g) in the tumor and major organs was quantified (FIG. 16).” for “t-test.”
# [6] = in vivo; design: species or system mice; details: male, mouse, total radioactivity
# Method: as §1, §2, §3
smiles,measurement,setting,value
"CC(=O)N(O)CCCCCNC(=O)CCC(=O)N(O)CCCCCNC(=O)CCC(=O)N(O)CCCCCNc1c(NCCN(CCNC(=O)CCCC(=O)NCCCCC(NC(=O)NC(CCC(=O)O)C(=O)O)C(=O)O)CCNC(=O)CCCC(=O)NCCCCC(NC(=O)NC(CCC(=O)O)C(=O)O)C(=O)O)c(=O)c1=O (single isomer, unassigned) [^89Zr(3), metal not drawn]",Tumour SUVmax 1 h pi,[1],1.7 ± 0.12
same,Tumour SUVmax 18 h pi,[1],0.6 ± 0.06
same,Tumour SUVmax Clearance %,[1],65%
same,Tumour Uptake % ID/g 1 h pi,"[2]; male, iv, 1 h",5.9 % ID/g
same,Tumour Uptake % ID/g 18 h pi,"[2]; male, iv, 18 h",2.5 ± 0.22 % ID/g
same,Cell Uptake % AR/mg protein (60 min) Surface bound,[3],2.2 ± 0.14 % AR/mg protein
same,Cell Uptake % AR/mg protein (60 min) internalized,[3],3.8 ± 0.39 % AR/mg protein
"CC(=O)N(O)CCCCCNC(=O)CCC(=O)N(O)CCCCCNC(=O)CCC(=O)N(O)CCCCCNc1c(N[C@H](Cc2ccccc2)C(=O)N[C@H]2CSSC[C@@H](C(=O)N[C@H](CO)[C@@H](C)O)NC(=O)[C@H]([C@@H](C)O)NC(=O)[C@H](CCCCN)NC(=O)[C@@H](Cc3c[nH]c4ccccc34)NC(=O)[C@H](Cc3ccc(O)cc3)NC2=O)c(=O)c1=O (89Zr complex, metal not drawn) [^89ZrDFOSqTIDE] (H-[X1]([Suc-X2])CY[dW]KTC[Thr(ol)]; disulfide 2-7)",Tumour SUVmax 1 h pi,[4],1.1 ± 0.07
same,Tumour SUVmax 18 h pi,[4],0.5 ± 0.01
same,Tumour SUVmax Clearance %,[4],55%
same,Tumour Uptake % ID/g 1 h pi,[5],3.4 ± 0.4 % ID/g
same,Tumour Uptake % ID/g 18 h pi,[5],1.7 ± 0.1 % ID/g
"CC(=O)N(O)CCCCCNC(=O)CCC(=O)N(O)CCCCCNC(=O)CCC(=O)N(O)CCCCCNc1c(N[C@H](Cc2ccccc2)C(=O)N[C@H]2CSSC[C@@H](C(=O)N[C@H](C(=O)O)[C@@H](C)O)NC(=O)[C@H]([C@@H](C)O)NC(=O)[C@H](CCCCN)NC(=O)[C@@H](Cc3c[nH]c4ccccc34)NC(=O)[C@H](Cc3ccc(O)cc3)NC2=O)c(=O)c1=O (89Zr complex, metal not drawn) [^89ZrDFOSqTATE] (H-[X1]([Suc-X2])CY[dW]KTCT-OH; disulfide 2-7)",Tumour SUVmax 1 h pi,[4],3.1 ± 0.2
same,Tumour SUVmax 18 h pi,[4],1.3 ± 0.15
same,Tumour SUVmax Clearance %,[4],58%
same,Tumour Uptake % ID/g 1 h pi,[5],10.4 ± 0.5 % ID/g
same,Tumour Uptake % ID/g 18 h pi,[5],4.9 ± 0.8 % ID/g
"CC(=O)N(O)CCCCCNC(=O)CCC(=O)N(O)CCCCCNC(=O)CCC(=O)N(O)CCCCCNc1c(NCCN(CCNC(=O)CCCC(=O)NCc2ccc(C(=O)NCCCCC(NC(=O)NC(CCC(=O)O)C(=O)O)C(=O)O)cc2)CCNC(=O)CCCC(=O)NCc2ccc(C(=O)NCCCCC(NC(=O)NC(CCC(=O)O)C(=O)O)C(=O)O)cc2)c(=O)c1=O (single isomer, unassigned) [^68Ga(4), metal not drawn]",Gut uptake in PET images,[1],no gut uptake
same,Kidney uptake in PET images,[1],high kidney uptake
same,LNCap tumour uptake in PET images,[1],moderate tumour uptake
same,Tumour SUVmax 1 h pi,[1],1.6 ± 0.10
same,Tumour SUVmax 2 h pi,[1],1.5 ± 0.09
same,tissue uptake at 1 h,[6]; Tumour Uptake % ID/g 1 h pi,10.8 ± 1.26 %ID/g
same,tissue uptake at 2.5 h,[6]; Tumour Uptake % ID/g 2.5 h pi,8.6 ± 0.93 %ID/g
same,Tumour Uptake % ID/g 1 h pi,[2],10.8±1.3 % ID/g
